Measurements taken from the nanobody polyreactivity screen of Harvey et al. (2022).

assay: yeast display, Sf9 membrane polyspecificity reagent, FACS + sequencing; frameworks hold sequencing errors
Method in brief: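 After 36–48 hours of galactose induction, yeast (Saccharomyces cerevisiae BJ5465) displaying a synthetic nanobody library were stained at 4 °C for 1 hour with 10% biotinylated, detergent-solubilized Sf9 membrane reagent. Streptavidin microbeads enriched the stained cells before FACS sorting into low and high (top ~1%) gates on anti-HA and streptavidin fluorescence. Each clone's polyreactivity label reflects its gate of origin.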

Row | Sequence | polyreactivity (PSR sort gate)
1 | QVQLVESGGGLVQAGGSLRLSCAASGLIFYSNAMGWYRQAPGKERELVATISGSTGTTNYADSVKGRFTISRDNAKNTVYLQMNSLKPEDTAVYYCAAEWRRYEYADSWEYDYWGQGTQVTVSS | low polyreactivity
2 | QVQLVESGGGLVQAGGSLRLSCAASGLIFYSYAMGWYRQAHAKERELVAAITGGGSTNYADSVKGRFTISRDNAKNTVYLQMNSLKPEDTAVYYCAAQAYVEGVYRYDYWGQGTQVTVSS | low polyreactivity
3 | QVQLVESGGGLVQAGGSLRLSCAASGLIFYTYAMGWYRQAPGKERALVADINRSDGSTYYADSVKGRFTISRDNAKNTVYLQMNILKPEDTAVYYCAVVGPYYTRFGGRYYYWGQGTQVTVSS | low polyreactivity
4 | QVQLVESGGGLVQAGGSLRLSCAASGLIFYTYAMGWYRQAPGKERELVAAISYDGTRTYYADSVKGRFTISRDNAKNTVYLQMNSLKPEDTAVYYCTAAYRRGDDYWGQGTQVTVSS | high polyreactivity
5 | QVQLVESGGGLVQAGGSLRLSCAASGLIFYYYAMGWYRQAPGKEREFVAAINSSGDSTYYADSVKGRFTISRDNAKNTVYLQMNSLKPEDTAVYYCNVDWYLHEYDYWGQGTQVTVSS | low polyreactivity
6 | QVQLVESGGGLVQAGGSLRLSCAASGLIFYYYAMGWYRQAPGKEREFVAAISRSGGITRYADSVKGRFTISRDNAKNTVYLQMNSLKPEDTAVYYCAADAYPLTYDDYYWGQGTKVTVSS | high polyreactivity
7 | QVQLVESGGGLVQAGGSLRLSCAASGLIFYYYAMGWYRQAPGKERELVADIDRGGDTYYADSVKGRFTISRDNAKNTVYLQMNSLKPEDTAVYYGAAVDFYGYVPEFGYWGQGTQVTVSS | low polyreactivity
8 | QVQLVESGGGLVQAGGSLRLSCAASGLIFYYYTMGWYRQAPGKERELVAAITNGGRTNYADSVKGRFTISRDNAKNTVYLQMNSLKPEDTAVYYCNAVVHKYQRGPYYIKYDYWGQGTQVTVSS | high polyreactivity
9 | QVQLVESGGGLVQAGGSLRLSCAASGLIFYYYVMGWYRQAPGKERELVARISTSGGSTYYADSVKGRFTISRDNAKNTVYLQMNSLKPEDTAVYYCAARGYRQYGWDGYWGQGTQVTVSS | low polyreactivity
10 | QVQLVESGGGLVQAGGSLRLSCAASGLIIPFYAMGWYRQAPGKERELVAAISWSAGSTYYADSVKGRFTISRDNAKNTVYLQMNSLKPEDTADYYCATERNPADFYWGQGTQVTVSS | low polyreactivity
11 | QVQLVESGGGLVQAGGSLRLSCAASGLIIPFYAMGWYRQAPGKERELVAAISWSAGSTYYADSVKGRFTISRDNAKNTVYLQMNSLKPEDTAVYYCAATAYYYYDYDYWGQGTQVTVSS | low polyreactivity
12 | QVQLVESGGGLVQAGGSLRLSCAASGLIIRPYAMGWYRQAPGKERELVAAITSGGSTDYADSVKGRFTISRVNAKNSVYLQMYSRKPEDTAVYYCNGDIYPHDGYPWQGDYDYWGQGTQVTVSS | low polyreactivity
13 | QVQLVESGGGLVQAGGSLRLSCAASGLILGINAMGWYRQAPGKERELVAAISSSGGRTSYADSVKGRFTISRDNAKNTVYLQMNILKPEDTAVYYCAKRRTTYSHYDYWGQGTQVSVSS | low polyreactivity
14 | QVQLVESGGGLVQAGGSLRLSCAASGLILPDYAMGWYRQAPGKERELVAAISESAASTYYADSVKGRFTISRDNAKNTVYLQMNSLKPEDTAVYYCAAEVWCYSWYYWYYDGEYYWGQGTQVTVSS | high polyreactivity
15 | QVQLVESGGGLVQAGGSLRLSCAASGLILPYYAMGWYRQAPGKERELVAAISRTGGRTSYADSVKGRFTISRDNAKNTVYLQMNSLKPEDTAVYYCAAVGQSGGRRYDYWGQGTQVTVSS | high polyreactivity
16 | QVQLVESGGGLVQAGGSLRLSCAASGLILPYYAMGWYRQAPGTERELVAAISRTAGRTSYADSVKGRFTISRDNAKNTVYLQMNSLKPEDTAVYYCAAVGQSGGRRYDYWGQGTQVTVSS | high polyreactivity
17 | QVQLVESGGGLVQAGGSLRLSCAASGLILSDYAMGWYRQAPGKERELVATITSVGTTKYADSVKGRVTISRDNAKKTVYVQLHSLKPEDTAVYYCAAEFIRGYGESYDYWGQGTQVTVSS | low polyreactivity
18 | QVQLVESGGGLVQAGGSLRLSCAASGLILSGYTMGWYRPAPGKERELVAAISRSGGRTYYADSVKGRFTISRDNAKNTVYLQMNSLKPEDTAVYYCAAAKRTWRSDYWGQGTQVTVSS | high polyreactivity
19 | QVQLVESGGGLVQAGGSLRLSCAASGLILSSNAMGWYRQAPGKERELVAAITWDGDRTYADSVKGRFTISRDNAKNTVYLQMNSLKPEDTAVYYCAADKQYYWYDWSYVYWGQGTQVTVSS | low polyreactivity
20 | QVQLVESGGGLVQAGGSLRLSCAASGLILSSNARGWYRQAPGKETELVAAITWDGDRTYADSVKGRFTISRDNAKNTVYLQMNSLKPEDTAVYYCAAYPYYYYGYDYWGQGTQVTVSS | low polyreactivity
21 | QVQLVESGGGLVQAGGSLRLSCAASGLILYYYAMGWYRQAPGKERELVAAISRRDGDTYYADSVKGRFTISRDNAKNTVYLQMNSLKPEDTAVYYCAAERRWSWVVRDDYWGQGTQVTVSS | low polyreactivity
22 | QVQLVESGGGLVQAGGSLRLSCAASGLISYAYAMGWYRQAPGKERELVAAIRSSGSTYYADSVKGRFTISLDNAKNTVYLQMNSLKPEDTAVYYCAKRNPIKYYGGGYWGQGTQVTVSS | high polyreactivity

Row | Sequence | polyreactivity (PSR sort gate)
23 | QVQLVESGGGLVQAGGSLRLSCAASGLIVVHYAMGWYSQAPGKVREFVAAITWSGGSTYYADSVKGRFTISRDNAKNTVYLQMNSLKPEDTAVYYCAVDGFRPGTASFGYWGQGTQVTVSS | low polyreactivity
24 | QVQLVESGGGLVQAGGSLRLSCAASGLIVWYYAMGWYRQAPGKERELVATITSRGGSTYYADSVKGRFTISRDNAKNTVYLQMNSLKPEDTAVYYCARENPGDSYYDYWGQATQVTVSS | low polyreactivity
25 | QVQLVESGGGLVQAGGSLRLSCAASGLIYFYAMGWYRQEPGKERELVAAISSSGGRTYYADSVKGRFTISRDNAKNTVYLQMNSLKPEDTAVYYCAVVSSHYKGPGRNGYDYWGQGTQVTVSS | high polyreactivity
26 | QVQLVESGGGLVQAGGSLRLSCAASGLIYFYYDMGWYRQAPGKERELVAAISQRGGSTYYADSVKGRFTISRDNAKNTVYLQMNSLKPEDTAVYYCNAYSQRYGYYYWGQGTQVTVSS | high polyreactivity
27 | QVQLVESGGGLVQAGGSLRLSCAASGLIYTPYAMGWYRQAPGKERELVAAINYGGSRTYYADSVKGRFTISRDNAKNTVYLQMNSLKPEDTAVYYCNKPGNYVWRRSWDFDYWGQGTQVTVSS | high polyreactivity
28 | QVQLVESGGGLVQAGGSLRLSCAASGLMFTRYAMGWYRQAPGKERELVAAISITGGSTYYADSVKGRFTFSRDNAKNTVYLQMNSLKPEDTAVYYCAAQRQVTTGIYGYWGQGTQVTVSS | high polyreactivity
29 | QVQLVESGGGLVQAGGSLRLSCAASGLNFIRYAMGWYRPAPGKERELVAAISWPGGNTYYADSVKGRFTISRDNAKNTVYLQMISQKPEDTAVYYCAAVGTWQHRSYGYWGQGTQVTVSS | high polyreactivity
30 | QVQLVESGGGLVQAGGSLRLSCAASGLNFWYYAMGWYRQAPGKERELVAAISWGGGSTYYADSVKGRFTISRDNAKNTVYLLMNSLKPEDTAVYYCAADSSYWYGTECDYWGQGTQVTVSS | high polyreactivity
31 | QVQLVESGGGLVQAGGSLRLSCAASGLNFYWYAMGWYRQAPGKERELFAAINWSGGRTHYADSVKGRFTMSRDNANNTVYFQMNCLKPEDTAVYYCAASPYWFTRYYPKTRETMDYWGQGTQVTVST | high polyreactivity
32 | QVQLVESGGGLVQAGGSLRLSCAASGLPYAMGWYRQAPGKERELVAAISSSGGSTYYADSVKGRFTISRDNAKNNVYLQMNSLKPEDTAVYYCNRDIGGTSVLDDYWGQGTQVTVSS | low polyreactivity
33 | QVQLVESGGGLVQAGGSLRLSCAASGLRFNVYAMGWYRQAPGKERELVAAITSGGSTHYADSVKGRFTISRDNAKNTVYLQMNSLKPEDTAVYYCNKELATARGQSLYRTYSGYGYRGQGTQVTVSS | high polyreactivity
34 | QVQLVESGGGLVQAGGSLRLSCAASGLSFSGNVMGWYRQAPGKERELVAAIDRSGGSTYYADSVKGRFTISRDNAQKTVYLQMNSLKPEDTAVYYCAVSSYPNHSRSWDDYWGQGTQVTVSS | low polyreactivity
35 | QVQLVESGGGLVQAGGSLRLSCAASGLSSLRMLWDGRDRRLGKKGSWLPLITSGGDSTNYADSVKGRFTISRDNAKNTVYLQMNSLKPEDTAVYYCAADLDYPYGYWGQGTQVTVSS | low polyreactivity
36 | QVQLVESGGGLVQAGGSLRLSCAASGLTCSRNAMGWYRQAPGKERELVAAINWSGGSTYYADSVKGRFTISRDNAKNTVYLQMNSLKPEDTAVYYCAAEYAPSPYDWGYEYWGQGTQVTLSS | high polyreactivity
37 | QVQLVESGGGLVQAGGSLRLSCAASGLTFADYAMGWYRKAPGKERELVAAISRRGGSTYYADSVKGRFTISRDNAKNTVYLQMNSLKPEDTAVYYCNAAYVYGDQARGGYWGQGTQVTVSS | high polyreactivity
38 | QVQLVESGGGLVQAGGSLRLSCAASGLTFAGYAMGWYRQAPGKERELVASITTSGGSTHNADSVKGRFTISRDNEKNTVYVQMNSLKPEDTAVYYCAAECYPGDTELIGAFDYWGQGTQVTVSS | low polyreactivity
39 | QVQLVESGGGLVQAGGSLRLSCAASGLTFALYAMGWYRQAPGQERELVAAIDWSGGITYYADSVKGRFTISRDHAKNTVYLQMNSLKPEDTAVYYCAARPSTFKYKYGYWGQGTQVTVSS | high polyreactivity
40 | QVQLVESGGGLVQAGGSLRLSCAASGLTFANYAMGWYRQAPGKERELVAAISTWSGGSTYYADSVKGRFTISRDNAKNTVYLQMNSLKPEDTAVYYCAARRYSRGRLPYDYGGQGTQVTVSS | high polyreactivity
41 | QVQLVESGGGLVQAGGSLRLSCAASGLTFARTAKGWYRQAPGKERALVAAISSRGGSTYYADSVKGRFTISRDIANNTVYLQMNSLKPEDTAVYYCATSQVLRRDRYDYWGQGTQVTVSS | high polyreactivity
42 | QVQLVESGGGLVQAGGSLRLSCAASGLTFASNAMGWYRQAPGKERELVAAISWSDGSTYYADSVKGRFTISRDNAKNTVYLQMNSLKPEDTAVYYCAAEPPGFRTSRVGYWGQGTQVTVSS | low polyreactivity
43 | QVQLVESGGGLVQAGGSLRLSCAASGLTFASYAMGWYRQAPGKERELVARISRSGGSTYYADSVKGRFTISRDNAKNTVYLQMKSLKPEDTAVYYCAADYIFRRYPVGGIYDYDYWGQGTQVSVSS | high polyreactivity
